Experiments:
[1] = biological target: monomeric Red Fluorescent Protein 1 (mRFP1); experiment: dual-colour FCCS in living HeLa cells, proteins expressed separately from pIRES-EGFP-mRFP1 (negative control, 0% interaction)
[2] = biological target: JunΔdimΔDNA-mRFP1 (human) (UniProt P05412); experiment: dual-colour FCCS in living HeLa cells; references: 13% for no interaction, 45% for 100% interaction
UniProt P05412, sequence (P05412 other isoform, or with tags, fused parts or gaps mutant): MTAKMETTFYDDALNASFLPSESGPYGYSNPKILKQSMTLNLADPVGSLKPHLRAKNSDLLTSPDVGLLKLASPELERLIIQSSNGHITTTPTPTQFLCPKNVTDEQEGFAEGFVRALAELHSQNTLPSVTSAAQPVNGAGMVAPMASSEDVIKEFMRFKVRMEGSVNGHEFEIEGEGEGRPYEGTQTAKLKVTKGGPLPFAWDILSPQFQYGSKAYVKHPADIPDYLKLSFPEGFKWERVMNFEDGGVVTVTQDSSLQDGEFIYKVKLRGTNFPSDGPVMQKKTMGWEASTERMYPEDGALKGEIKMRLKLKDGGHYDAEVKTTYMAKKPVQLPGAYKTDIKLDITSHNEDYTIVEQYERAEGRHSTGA

cross-correlation amplitude (percent of the autocorrelation signal) [1] | cross-correlation amplitude [2] | Substance
13% |  | Enhanced Green Fluorescent Protein (EGFP)
 | 18% | FosΔdimΔDNA-EGFP (from UniProt P01100 1-138)
